Experimental data as given in US20140087995A1 (published 2014).
One block for each binder: values may come before it. Numbered stars: 1 amine (or outer) side, 2 acyl side, 3 side chain; on linkers, the order of the positions; unused ones are H or OH. Bridge positions count the residues as written; N and C are the ends. Side chains are listed from the residue outwards. Ends that are not written are not given here. * marks the point of attachment. C20 diacid = O=C(O)CCCCCCCCCCCCCCCCCCC(=O)*; γGlu = O=C(O)[C@H](CCC(=O)[*:2])N[*:1]

What was measured:
[1] = target: T1, human calcitonin receptor (human, UniProt P30988 25-474); test: cell-based or functional assay
T1 sequence (looked up): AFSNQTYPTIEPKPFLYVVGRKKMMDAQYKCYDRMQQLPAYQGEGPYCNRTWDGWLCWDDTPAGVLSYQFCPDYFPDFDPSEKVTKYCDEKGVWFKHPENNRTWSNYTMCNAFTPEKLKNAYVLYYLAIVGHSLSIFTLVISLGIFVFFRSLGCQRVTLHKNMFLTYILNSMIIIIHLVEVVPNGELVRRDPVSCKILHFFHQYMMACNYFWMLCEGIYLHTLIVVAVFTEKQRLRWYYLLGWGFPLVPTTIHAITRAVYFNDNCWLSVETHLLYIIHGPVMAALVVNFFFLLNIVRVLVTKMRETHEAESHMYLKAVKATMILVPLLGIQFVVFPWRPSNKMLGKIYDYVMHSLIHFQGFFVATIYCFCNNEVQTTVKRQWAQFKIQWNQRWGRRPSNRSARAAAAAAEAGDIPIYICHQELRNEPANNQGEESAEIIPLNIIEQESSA

[2] = target: T2, human amylin receptor (amylin 3(a) receptor: human calcitonin receptor with RAMP-3) (human, UniProt P30988 25-474; O60896 24-148); test: SPA displacement of 125I-rat amylin, hAmylin 3(a) receptor membranes
T2 construct: whole, on cells; also called hAmylin-R; hAmylinR
T2 sequence (looked up) 1: T1 sequence (looked up)
T2 sequence (looked up) 2: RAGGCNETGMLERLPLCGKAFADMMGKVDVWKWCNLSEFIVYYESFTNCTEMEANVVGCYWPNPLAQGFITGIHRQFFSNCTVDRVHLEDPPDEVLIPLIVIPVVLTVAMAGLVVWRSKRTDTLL
Summary of the method: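 One-site competition analysis of SPA counts yielded IC₅₀ as a measure of affinity. Membranes were at 35 ng/μL final; incubation was 120 min at 25° C, pH 7.4.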

hCTR funct. EC50 [1]: 14.1 nM
B1: N^ε1-[(4S)-4-carboxy-4-[[(4S)-4-carboxy-4-(19-carboxynonadecanoylamino)butanoyl]amino]butanoyl]-[Asp14,Arg17,Pro21,Pro27,Arg35]-h-amylin (peptide)
peptide: K([γGlu-γGlu-C20 diacid])CNTATCATQRLADFLRHSSPNFGAIPSSTNVGSRTY-NH2
modifications: disulfide 2-7; N-terminus assumed
SMILES: CC[C@H](C)[C@H](NC(=O)[C@H](C)NC(=O)CNC(=O)[C@H](Cc1ccccc1)NC(=O)[C@H](CC(N)=O)NC(=O)[C@@H]1CCCN1C(=O)[C@H](CO)NC(=O)[C@H](CO)NC(=O)[C@H](Cc1c[nH]cn1)NC(=O)[C@H](CCCNC(=N)N)NC(=O)[C@H](CC(C)C)NC(=O)[C@H](Cc1ccccc1)NC(=O)[C@H](CC(=O)O)NC(=O)[C@H](C)NC(=O)[C@H](CC(C)C)NC(=O)[C@H](CCCNC(=N)N)NC(=O)[C@H](CCC(N)=O)NC(=O)[C@@H](NC(=O)[C@H](C)NC(=O)[C@@H]1CSSC[C@H](NC(=O)[C@@H](N)CCCCNC(=O)CC[C@H](NC(=O)CC[C@H](NC(=O)CCCCCCCCCCCCCCCCCCC(=O)O)C(=O)O)C(=O)O)C(=O)N[C@@H](CC(N)=O)C(=O)N[C@@H]([C@@H](C)O)C(=O)N[C@@H](C)C(=O)N[C@@H]([C@@H](C)O)C(=O)N1)[C@@H](C)O)C(=O)N1CCC[C@H]1C(=O)N[C@@H](CO)C(=O)N[C@@H](CO)C(=O)N[C@H](C(=O)N[C@@H](CC(N)=O)C(=O)N[C@H](C(=O)NCC(=O)N[C@@H](CO)C(=O)N[C@@H](CCCNC(=N)N)C(=O)N[C@H](C(=O)N[C@@H](Cc1ccc(O)cc1)C(N)=O)[C@@H](C)O)C(C)C)[C@@H](C)O
notes: also called compound 52

IC50 [2]: 0.443 nM
B2: N^ε1-[(4S)-4-carboxy-4-(19-carboxynonadecanoylamino)butanoyl]-[Arg17,Pro21,Pro27]-h-amylin (peptide)
peptide: K([γGlu-C20 diacid])CNTATCATQRLANFLRHSSPNFGAIPSSTNVGSNTY-NH2
modifications: disulfide 2-7; N-terminus assumed
SMILES: CC[C@H](C)[C@H](NC(=O)[C@H](C)NC(=O)CNC(=O)[C@H](Cc1ccccc1)NC(=O)[C@H](CC(N)=O)NC(=O)[C@@H]1CCCN1C(=O)[C@H](CO)NC(=O)[C@H](CO)NC(=O)[C@H](Cc1c[nH]cn1)NC(=O)[C@H](CCCNC(=N)N)NC(=O)[C@H](CC(C)C)NC(=O)[C@H](Cc1ccccc1)NC(=O)[C@H](CC(N)=O)NC(=O)[C@H](C)NC(=O)[C@H](CC(C)C)NC(=O)[C@H](CCCNC(=N)N)NC(=O)[C@H](CCC(N)=O)NC(=O)[C@@H](NC(=O)[C@H](C)NC(=O)[C@@H]1CSSC[C@H](NC(=O)[C@@H](N)CCCCNC(=O)CC[C@H](NC(=O)CCCCCCCCCCCCCCCCCCC(=O)O)C(=O)O)C(=O)N[C@@H](CC(N)=O)C(=O)N[C@@H]([C@@H](C)O)C(=O)N[C@@H](C)C(=O)N[C@@H]([C@@H](C)O)C(=O)N1)[C@@H](C)O)C(=O)N1CCC[C@H]1C(=O)N[C@@H](CO)C(=O)N[C@@H](CO)C(=O)N[C@H](C(=O)N[C@@H](CC(N)=O)C(=O)N[C@H](C(=O)NCC(=O)N[C@@H](CO)C(=O)N[C@@H](CC(N)=O)C(=O)N[C@H](C(=O)N[C@@H](Cc1ccc(O)cc1)C(N)=O)[C@@H](C)O)C(C)C)[C@@H](C)O
notes: also called 48; compound 48

IC50 [2]: 0.275 nM
B3: N^ε-[(4S)-4-carboxy-4-(19-carboxynonadecanoylamino)butanoyl]Lys[Arg1,Arg17,Pro21,Pro27,His35]-h-amylin (peptide)
peptide: K([γGlu-C20 diacid])RCNTATCATQRLANFLRHSSPNFGAIPSSTNVGSHTY-NH2
modifications: disulfide 3-8; N-terminus assumed
SMILES: CC[C@H](C)[C@H](NC(=O)[C@H](C)NC(=O)CNC(=O)[C@H](Cc1ccccc1)NC(=O)[C@H](CC(N)=O)NC(=O)[C@@H]1CCCN1C(=O)[C@H](CO)NC(=O)[C@H](CO)NC(=O)[C@H](Cc1c[nH]cn1)NC(=O)[C@H](CCCNC(=N)N)NC(=O)[C@H](CC(C)C)NC(=O)[C@H](Cc1ccccc1)NC(=O)[C@H](CC(N)=O)NC(=O)[C@H](C)NC(=O)[C@H](CC(C)C)NC(=O)[C@H](CCCNC(=N)N)NC(=O)[C@H](CCC(N)=O)NC(=O)[C@@H](NC(=O)[C@H](C)NC(=O)[C@@H]1CSSC[C@H](NC(=O)[C@H](CCCNC(=N)N)NC(=O)[C@@H](N)CCCCNC(=O)CC[C@H](NC(=O)CCCCCCCCCCCCCCCCCCC(=O)O)C(=O)O)C(=O)N[C@@H](CC(N)=O)C(=O)N[C@@H]([C@@H](C)O)C(=O)N[C@@H](C)C(=O)N[C@@H]([C@@H](C)O)C(=O)N1)[C@@H](C)O)C(=O)N1CCC[C@H]1C(=O)N[C@@H](CO)C(=O)N[C@@H](CO)C(=O)N[C@H](C(=O)N[C@@H](CC(N)=O)C(=O)N[C@H](C(=O)NCC(=O)N[C@@H](CO)C(=O)N[C@@H](Cc1c[nH]cn1)C(=O)N[C@H](C(=O)N[C@@H](Cc1ccc(O)cc1)C(N)=O)[C@@H](C)O)C(C)C)[C@@H](C)O
notes: also called 44; compound 44

IC50 [2]: 0.344 nM
B4: N^-1-[(4S)-4-carboxy-4-(19-carboxynonadecanoylamino)butanoyl]-Gly[Arg1,Arg17,Pro21,Pro27,His35]-h-amylin (peptide)
peptide: {C20 diacid-γGlu}-GRCNTATCATQRLANFLRHSSPNFGAIPSSTNVGSHTY-NH2
modifications: disulfide 3-8
SMILES: CC[C@H](C)[C@H](NC(=O)[C@H](C)NC(=O)CNC(=O)[C@H](Cc1ccccc1)NC(=O)[C@H](CC(N)=O)NC(=O)[C@@H]1CCCN1C(=O)[C@H](CO)NC(=O)[C@H](CO)NC(=O)[C@H](Cc1c[nH]cn1)NC(=O)[C@H](CCCNC(=N)N)NC(=O)[C@H](CC(C)C)NC(=O)[C@H](Cc1ccccc1)NC(=O)[C@H](CC(N)=O)NC(=O)[C@H](C)NC(=O)[C@H](CC(C)C)NC(=O)[C@H](CCCNC(=N)N)NC(=O)[C@H](CCC(N)=O)NC(=O)[C@@H](NC(=O)[C@H](C)NC(=O)[C@@H]1CSSC[C@H](NC(=O)[C@H](CCCNC(=N)N)NC(=O)CNC(=O)CC[C@H](NC(=O)CCCCCCCCCCCCCCCCCCC(=O)O)C(=O)O)C(=O)N[C@@H](CC(N)=O)C(=O)N[C@@H]([C@@H](C)O)C(=O)N[C@@H](C)C(=O)N[C@@H]([C@@H](C)O)C(=O)N1)[C@@H](C)O)C(=O)N1CCC[C@H]1C(=O)N[C@@H](CO)C(=O)N[C@@H](CO)C(=O)N[C@H](C(=O)N[C@@H](CC(N)=O)C(=O)N[C@H](C(=O)NCC(=O)N[C@@H](CO)C(=O)N[C@@H](Cc1c[nH]cn1)C(=O)N[C@H](C(=O)N[C@@H](Cc1ccc(O)cc1)C(N)=O)[C@@H](C)O)C(C)C)[C@@H](C)O
notes: also called 47; compound 47
